Paper PMC9021268

Experiments:
tubulin (microtubules) = test: optical trap tip-attachment detachment rate
[1] = target: Dynamic microtubules, coverslip-anchored (grown from GMPCPP-stabilized seeds with unpolymerized tubulin) (bovine) (UniProt Q6B856); test: optical trap force clamp (detachment of kinetochore-decorated beads from microtubule tips); high density of kinetochores on anti-His beads (Dsn1:bead ratio 3,300); coverslip-anchored dynamic microtubules; ~1 pN; 3 nM Dam1c and ATP in the buffer; 5 μM AurB*-KD flowed in
[2] = target: Dynamic microtubules, coverslip-anchored (grown from GMPCPP-stabilized seeds with unpolymerized tubulin) (bovine) (UniProt Q6B856); test: optical trap force clamp (detachment of kinetochore-decorated beads from microtubule tips); low density of kinetochores on anti-His beads (Dsn1:bead ratio 200); coverslip-anchored dynamic microtubules; 1.5 pN; 3 nM Dam1c and ATP in the buffer; 0.5 μM AurB*-KD flowed in
[3] = target: Dynamic microtubules, coverslip-anchored (grown from GMPCPP-stabilized seeds with unpolymerized tubulin) (bovine) (UniProt Q6B856); test: optical trap force clamp (detachment of kinetochore-decorated beads from microtubule tips); low density of kinetochores on anti-His beads (Dsn1:bead ratio 200); coverslip-anchored dynamic microtubules; 5 pN; 3 nM Dam1c and ATP in the buffer; 0.5 μM AurB*-KD flowed in
[4] = target: Dynamic microtubules, coverslip-anchored (grown from GMPCPP-stabilized seeds with unpolymerized tubulin) (bovine) (UniProt Q6B856); test: optical trap force clamp (detachment of kinetochore-decorated beads from microtubule tips); high density of kinetochores on anti-His beads (Dsn1:bead ratio 3,300); coverslip-anchored dynamic microtubules; ~1 pN; 3 nM Dam1c and ATP in the buffer; 5 μM active AurB* flowed in
[5] = target: Dynamic microtubules, coverslip-anchored (grown from GMPCPP-stabilized seeds with unpolymerized tubulin) (bovine) (UniProt Q6B856); test: optical trap force clamp (detachment of kinetochore-decorated beads from microtubule tips); low density of kinetochores on anti-His beads (Dsn1:bead ratio 200); coverslip-anchored dynamic microtubules; 5 pN; 3 nM Dam1c and ATP in the buffer; 0.5 μM active AurB* flowed in
[6] = target: Dynamic microtubules, coverslip-anchored (grown from GMPCPP-stabilized seeds with unpolymerized tubulin) (bovine) (UniProt Q6B856); test: optical trap force clamp (detachment of kinetochore-decorated beads from microtubule tips); high density of kinetochores on anti-His beads (Dsn1:bead ratio 3,300); coverslip-anchored dynamic microtubules; ~1 pN; 3 nM Dam1c and ATP in the buffer; 0.5 μM active AurB* flowed in
[7] = target: Dynamic microtubules, coverslip-anchored (grown from GMPCPP-stabilized seeds with unpolymerized tubulin) (bovine) (UniProt Q6B856); test: optical trap force clamp (detachment of kinetochore-decorated beads from microtubule tips); low density of kinetochores on anti-His beads (Dsn1:bead ratio 200); coverslip-anchored dynamic microtubules; 1.5 pN; 3 nM Dam1c and ATP in the buffer; 0.5 μM active AurB* flowed in
[8] = reference: 5 µM AurB*-KD flowed in

Chain of UniProt Q6B856 (Q6B856 whole entry, looked up): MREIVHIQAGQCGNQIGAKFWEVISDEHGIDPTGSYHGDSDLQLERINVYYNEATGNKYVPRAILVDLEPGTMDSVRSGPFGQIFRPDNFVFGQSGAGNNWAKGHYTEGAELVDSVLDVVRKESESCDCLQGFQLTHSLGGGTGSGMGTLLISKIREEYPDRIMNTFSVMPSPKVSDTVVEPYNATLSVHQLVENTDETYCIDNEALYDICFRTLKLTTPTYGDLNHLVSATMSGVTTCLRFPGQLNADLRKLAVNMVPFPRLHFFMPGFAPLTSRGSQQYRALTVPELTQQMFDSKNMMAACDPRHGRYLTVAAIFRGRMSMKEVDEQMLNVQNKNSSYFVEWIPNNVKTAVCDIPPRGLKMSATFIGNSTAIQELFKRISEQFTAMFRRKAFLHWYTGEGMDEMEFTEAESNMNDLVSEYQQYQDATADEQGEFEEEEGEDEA

Row | other: detachment rate (tubulin (microtubules); reference: 0.5 µM AurB*-KD flowed in) | other: detachment rate (tubulin (microtubules); [8]) | detachment rate [1] [h⁻¹] | detachment rate [2] [h⁻¹] | detachment rate [3] [h⁻¹] | detachment rate [4] [h⁻¹] | detachment rate [5] [h⁻¹] | detachment rate [6] [h⁻¹] | detachment rate [7] [h⁻¹] | Substance
1 | weaker; reference 10.4 ± 3.3 | weaker; reference 2.3 ± 0.9 |  |  |  |  |  |  |  | Ndc80 (from UniProt P40460) 0.5 µM AurB* flowed in
2 |  | weaker; reference 2.3 ± 0.9 |  |  |  |  |  |  |  | Ndc80 (from UniProt P40460) 5 µM AurB* flowed in
3 |  |  | 2.3 | 10.4 | 7 | 7.2 | 7 | 4.6 | 28.9 | Mps1-1 kinetochores (native kinetochores purified from budding yeast strain SBY8726) (from UniProt P40568 1-576; P40460 1-691; P53148 1-917) (complex)
